Laboratory results reported in US20210054088A1 (Eli Lilly, published 2021).
Read-outs that look alike come from different tables or passages of the source. One block for each binder: values may come before it.

Legend:
[1] = biological target: human CD137 on stably transfected human 293 cells (human, UniProt Q07011 24-255); test: cell-based or functional assay
[2] = biological target: T1, Recombinant human extracellular CD137-Fc protein (R&D Systems) (human, UniProt Q07011 24-186); test: SPR (Biacore T200), CD137-Fc immobilised, 25° C., 1:1 Langmuir fit
T1 construct: Bought protein; also called human CD137-Fc; not shown: Fc part of the bought fusion protein

[3] = biological target: T2, cynomolgus monkey CD137 on stably transfected human 293 cells (cynomolgus monkey, UniProt A9YYE7 24-254); test: flow cytometry on 293 cells expressing cynomolgus monkey CD137, antibody at 0.5 micrograms/mL; MFI of antibody / MFI of control IgG
T2 construct: whole, on cells; also called Cyno-CD137

[4] = biological target: T3, hCD137** ((human CD137 amino acids 22-164, ΔC121S)-AAA-FLAG) (human, UniProt Q07011 22-164); test: ELISA, coated hCD137**, anti-Fab detection
T3 construct: not shown: FLAG tag
T3 chain: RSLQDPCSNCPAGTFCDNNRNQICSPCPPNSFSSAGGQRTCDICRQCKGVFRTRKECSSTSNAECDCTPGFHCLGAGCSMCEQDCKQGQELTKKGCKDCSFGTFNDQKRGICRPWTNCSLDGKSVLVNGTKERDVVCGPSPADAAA

[5] = biological target: T4, human CD137-ECD-C121S-Fc mutant Q104K (human, UniProt Q07011 24-186); test: point ELISA, coated CD137-Fc mutant; mean of absorbance normalised to wild type over eight concentrations;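 further: antibody binding to plate-adsorbed CD137-Fc variants, detected with an HRP-labelled anti-Fab secondary antibody and TMB colour development read as absorbance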
T4 construct: not shown: Fc part

[6] = biological target: T5, human CD137-ECD-C121S-Fc mutant P27L (human, UniProt Q07011 24-186); test: as above
T5 construct: not shown: Fc part

[7] = biological target: T6, human CD137-ECD-C121S-Fc mutant K114E (human, UniProt Q07011 24-186); test: as above
T6 construct: not shown: Fc part

[8] = biological target: T7, human CD137-ECD-C121S-Fc mutant S100T (human, UniProt Q07011 24-186); test: as above
T7 construct: not shown: Fc part

[9] = biological target: T8, human CD137-ECD-C121S-Fc mutant A97P (human, UniProt Q07011 24-186); test: as above
T8 construct: not shown: Fc part

[10] = biological target: T9, human CD137-ECD-C121S-Fc mutant Q67V (human, UniProt Q07011 24-186); test: as above
T9 construct: not shown: Fc part

[11] = biological target: T10, human CD137-ECD-C121S-Fc mutant Q67R (human, UniProt Q07011 24-186); test: as above
T10 construct: not shown: Fc part

[12] = biological target: T11, human CD137-ECD-C121S-Fc mutant G98K (human, UniProt Q07011 24-186); test: as above
T11 construct: not shown: Fc part

[13] = biological target: T12, human CD137-ECD-C121S-Fc mutant G98Q (human, UniProt Q07011 24-186); test: as above
T12 construct: not shown: Fc part

[14] = biological target: T13, human CD137-ECD-C121S-Fc mutant K115Q (human, UniProt Q07011 24-186); test: as above
T13 construct: not shown: Fc part

[15] = biological target: T14, human CD137-ECD-C121S-Fc mutant D63N (human, UniProt Q07011 24-186); test: as above
T14 construct: not shown: Fc part

[16] = biological target: T15, human CD137-ECD-C121S-Fc mutant M101R (human, UniProt Q07011 24-186); test: as above
T15 construct: not shown: Fc part

[17] = biological target: T16, human CD137-ECD-C121S-Fc mutant N42S (human, UniProt Q07011 24-186); test: point ELISA on coated CD137-Fc mutant; % of binding relative to wild-type hCD137
T16 construct: not shown: Fc part

[18] = biological target: Human C1q (human, UniProt P02745 23-245; P02746 28-253; P02747 29-245); test: ELISA, antibody coated, human C1q added
[19] = biological target: FcγRI (UniProt P12314 16-288, limits assumed); test: MSD assay, Fcγ receptor coated
[20] = biological target: FcγRIIIa(V) (UniProt P08637 17-208, limits assumed); test: MSD assay, Fcγ receptor coated
[21] = biological target: T17, FcγRIIb (UniProt P31994 43-217, limits assumed); test: MSD assay, Fcγ receptor coated
T17 sequence (looked up): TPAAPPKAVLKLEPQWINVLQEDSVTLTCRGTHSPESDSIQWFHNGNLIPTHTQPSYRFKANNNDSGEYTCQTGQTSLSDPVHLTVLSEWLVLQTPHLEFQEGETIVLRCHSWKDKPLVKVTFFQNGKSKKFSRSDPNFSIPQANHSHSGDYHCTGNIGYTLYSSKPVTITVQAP

[22] = biological target: T18, FcγRIIa(H) (UniProt P12318 36-218, limits assumed); test: MSD assay, Fcγ receptor coated
T18 sequence (looked up): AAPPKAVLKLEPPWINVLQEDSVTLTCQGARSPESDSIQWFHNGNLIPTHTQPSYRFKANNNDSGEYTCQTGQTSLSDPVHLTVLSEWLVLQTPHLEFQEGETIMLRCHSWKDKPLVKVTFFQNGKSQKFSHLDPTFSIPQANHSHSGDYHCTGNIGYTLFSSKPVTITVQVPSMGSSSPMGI

[23] = biological target: FcγRIIIa(F) (UniProt P08637 17-208, limits assumed); test: MSD assay, Fcγ receptor coated
[24] = biological target: T1, Recombinant human extracellular …; test: ELISA, coated human CD137-Fc
[25] = biological target: T16, human CD137-ECD-C121S-Fc mutant N42S; test: point ELISA, coated CD137-Fc mutant; mean of absorbance normalised to wild type over eight concentrations;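 further: antibody binding to plate-adsorbed CD137-Fc variants, detected with an HRP-labelled anti-Fab secondary antibody and TMB colour development read as absorbance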
[26] = biological target: T19, human CD137-ECD-C121S-Fc mutant R134Q (human, UniProt Q07011 24-186); test: as above
T19 construct: not shown: Fc part

[27] = biological target: T20, human CD137-ECD-C121S-Fc mutant I132V (human, UniProt Q07011 24-186); test: as above
T20 construct: not shown: Fc part

[28] = biological target: T21, human CD137-ECD-C121S-Fc mutant R130H (human, UniProt Q07011 24-186); test: as above
T21 construct: not shown: Fc part

[29] = biological target: T13, human CD137-ECD-C121S-Fc mutant K115Q; test: as above; remark: listed apart in the source
[30] = biological target: T22, human CD137-ECD-C121S-Fc mutant R130A (human, UniProt Q07011 24-186); test: as above
T22 construct: not shown: Fc part
T22 sequence (Q07011 24-186 C121S/R130A): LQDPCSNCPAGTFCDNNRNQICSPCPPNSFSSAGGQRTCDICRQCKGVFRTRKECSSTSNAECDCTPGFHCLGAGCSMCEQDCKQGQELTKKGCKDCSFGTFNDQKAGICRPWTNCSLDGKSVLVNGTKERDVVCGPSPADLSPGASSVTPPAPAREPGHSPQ

human CD137 on stably transfected human 293 cells, sequence (Q07011 24-255 limits assumed): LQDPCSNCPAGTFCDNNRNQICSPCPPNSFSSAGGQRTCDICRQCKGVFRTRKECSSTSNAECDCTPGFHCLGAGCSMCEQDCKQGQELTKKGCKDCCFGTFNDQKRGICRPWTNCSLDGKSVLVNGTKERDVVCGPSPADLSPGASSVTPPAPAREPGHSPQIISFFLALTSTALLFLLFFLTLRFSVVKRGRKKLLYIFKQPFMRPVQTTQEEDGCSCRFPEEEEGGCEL
T13 sequence (Q07011 24-186 K115Q/C121S): as the sequence (Q07011 24-186 C121S/R130A) above, with K92Q, A107R counted along it
T2 sequence (A9YYE7 entry or part of it): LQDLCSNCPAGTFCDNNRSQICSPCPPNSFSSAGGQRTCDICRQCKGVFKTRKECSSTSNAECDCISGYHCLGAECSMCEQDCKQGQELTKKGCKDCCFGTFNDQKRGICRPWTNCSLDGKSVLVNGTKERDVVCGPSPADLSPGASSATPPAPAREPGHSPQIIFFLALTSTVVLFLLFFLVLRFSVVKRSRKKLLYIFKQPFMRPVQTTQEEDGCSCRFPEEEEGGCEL
T14 sequence (Q07011 24-186 D63N/C121S): as the sequence (Q07011 24-186 C121S/R130A) above, with D40N, A107R counted along it
T5 sequence (Q07011 24-186 P27L/C121S): as the sequence (Q07011 24-186 C121S/R130A) above, with P4L, A107R counted along it
T7 sequence (Q07011 24-186 S100T/C121S): as the sequence (Q07011 24-186 C121S/R130A) above, with S77T, A107R counted along it
T15 sequence (Q07011 24-186 M101R/C121S): as the sequence (Q07011 24-186 C121S/R130A) above, with M78R, A107R counted along it
T10 sequence (Q07011 24-186 Q67R/C121S): as the sequence (Q07011 24-186 C121S/R130A) above, with Q44R, A107R counted along it
T9 sequence (Q07011 24-186 Q67V/C121S): as the sequence (Q07011 24-186 C121S/R130A) above, with Q44V, A107R counted along it
T6 sequence (Q07011 24-186 K114E/C121S): as the sequence (Q07011 24-186 C121S/R130A) above, with K91E, A107R counted along it
T8 sequence (Q07011 24-186 A97P/C121S): as the sequence (Q07011 24-186 C121S/R130A) above, with A74P, A107R counted along it
T16 sequence (Q07011 24-186 N42S/C121S): as the sequence (Q07011 24-186 C121S/R130A) above, with N19S, A107R counted along it
T11 sequence (Q07011 24-186 G98K/C121S): as the sequence (Q07011 24-186 C121S/R130A) above, with G75K, A107R counted along it
T4 sequence (Q07011 24-186 Q104K/C121S): as the sequence (Q07011 24-186 C121S/R130A) above, with Q81K, A107R counted along it
T12 sequence (Q07011 24-186 G98Q/C121S): as the sequence (Q07011 24-186 C121S/R130A) above, with G75Q, A107R counted along it
T20 sequence (Q07011 24-186 C121S/I132V): as the sequence (Q07011 24-186 C121S/R130A) above, with A107R, I109V counted along it
Human C1q, sequence (P02745 23-245 limits assumed, chain 1 of 3): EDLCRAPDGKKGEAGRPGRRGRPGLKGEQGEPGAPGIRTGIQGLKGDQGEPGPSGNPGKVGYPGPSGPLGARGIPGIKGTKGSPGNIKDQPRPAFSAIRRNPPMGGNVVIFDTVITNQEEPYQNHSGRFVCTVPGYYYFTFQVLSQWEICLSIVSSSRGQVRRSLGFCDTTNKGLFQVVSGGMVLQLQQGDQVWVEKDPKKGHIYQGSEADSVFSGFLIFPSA
Human C1q, sequence (P02746 28-253 limits assumed, chain 2 of 3): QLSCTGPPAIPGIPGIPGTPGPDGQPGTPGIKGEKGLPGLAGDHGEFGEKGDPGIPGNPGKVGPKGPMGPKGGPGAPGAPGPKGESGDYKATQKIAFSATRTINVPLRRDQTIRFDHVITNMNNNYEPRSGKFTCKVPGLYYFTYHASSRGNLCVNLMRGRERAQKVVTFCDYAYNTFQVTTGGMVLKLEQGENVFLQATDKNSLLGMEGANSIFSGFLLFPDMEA
Human C1q, sequence (P02747 29-245 limits assumed, chain 3 of 3): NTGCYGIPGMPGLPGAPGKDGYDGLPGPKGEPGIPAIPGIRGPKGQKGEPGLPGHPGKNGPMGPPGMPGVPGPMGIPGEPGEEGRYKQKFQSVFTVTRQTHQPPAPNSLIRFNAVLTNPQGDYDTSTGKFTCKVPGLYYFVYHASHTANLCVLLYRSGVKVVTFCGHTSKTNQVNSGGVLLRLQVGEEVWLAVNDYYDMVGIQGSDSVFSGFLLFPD
FcγRIIIa(F), sequence (P08637 17-208 limits assumed): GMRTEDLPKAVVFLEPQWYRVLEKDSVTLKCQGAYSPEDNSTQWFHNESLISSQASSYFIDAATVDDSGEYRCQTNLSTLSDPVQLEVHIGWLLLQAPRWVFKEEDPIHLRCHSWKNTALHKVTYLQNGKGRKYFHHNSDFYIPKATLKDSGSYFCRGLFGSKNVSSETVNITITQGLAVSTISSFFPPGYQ
T19 sequence (Q07011 24-186 C121S/R134Q): as the sequence (Q07011 24-186 C121S/R130A) above, with A107R, R111Q counted along it
FcγRIIIa(V), sequence (P08637 17-208 F176V limits assumed): as the sequence (P08637 17-208 limits assumed) above, with F160V counted along it
T21 sequence (Q07011 24-186 C121S/R130H): as the sequence (Q07011 24-186 C121S/R130A) above, with A107H counted along it
FcγRI, sequence (P12314 16-288 limits assumed): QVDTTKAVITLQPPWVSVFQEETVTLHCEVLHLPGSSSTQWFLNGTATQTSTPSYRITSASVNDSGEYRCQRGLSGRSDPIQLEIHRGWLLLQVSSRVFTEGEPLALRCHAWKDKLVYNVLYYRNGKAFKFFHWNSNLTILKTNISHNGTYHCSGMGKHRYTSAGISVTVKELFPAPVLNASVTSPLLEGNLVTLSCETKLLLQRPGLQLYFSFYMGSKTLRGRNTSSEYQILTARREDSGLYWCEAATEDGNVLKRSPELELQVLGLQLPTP

B1: Antibody A1 (antibody, human IgG1, kappa)
heavy: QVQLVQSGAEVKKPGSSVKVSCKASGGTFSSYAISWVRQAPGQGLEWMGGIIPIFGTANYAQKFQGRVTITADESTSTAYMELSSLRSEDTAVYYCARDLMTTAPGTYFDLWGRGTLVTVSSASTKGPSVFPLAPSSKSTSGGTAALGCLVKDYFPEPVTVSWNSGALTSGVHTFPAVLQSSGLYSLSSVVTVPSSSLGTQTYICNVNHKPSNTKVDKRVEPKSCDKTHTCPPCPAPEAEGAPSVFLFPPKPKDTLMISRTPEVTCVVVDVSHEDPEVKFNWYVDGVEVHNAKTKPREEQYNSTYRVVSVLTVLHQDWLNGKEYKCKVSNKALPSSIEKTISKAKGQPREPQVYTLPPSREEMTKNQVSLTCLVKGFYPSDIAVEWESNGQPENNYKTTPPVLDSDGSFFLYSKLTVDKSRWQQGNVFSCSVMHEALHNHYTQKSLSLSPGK
light: AIRMTQSPPSLSASVGDRVTITCQASQDIGNSLGWYQQKPGKAPKLVIFDASDLETGVPSRFSGSGSGTDFSLTISSLQPEDFATYYCQQGNSFPLTFGQGTRLEIKRTVAAPSVFIFPPSDEQLKSGTASVVCLLNNFYPREAKVQWKVDNALQSGNSQESVTEQDSKDSTYSLSSTLTLSKADYEKHKVYACEVTHQGLSSPVTKSFNRGEC
notes: Full length form; IgG1 Fc-null, kappa
- max activity, NF-kappaB luciferase reporter [1]: 63.4%
- Kd [2]: 3.33 nM
- koff [2]: 0.00536 s⁻¹
- kon [2]: 1.61e+06 M⁻¹ s⁻¹

B5: Antibody A1/2 (antibody, human IgG1, kappa)
heavy: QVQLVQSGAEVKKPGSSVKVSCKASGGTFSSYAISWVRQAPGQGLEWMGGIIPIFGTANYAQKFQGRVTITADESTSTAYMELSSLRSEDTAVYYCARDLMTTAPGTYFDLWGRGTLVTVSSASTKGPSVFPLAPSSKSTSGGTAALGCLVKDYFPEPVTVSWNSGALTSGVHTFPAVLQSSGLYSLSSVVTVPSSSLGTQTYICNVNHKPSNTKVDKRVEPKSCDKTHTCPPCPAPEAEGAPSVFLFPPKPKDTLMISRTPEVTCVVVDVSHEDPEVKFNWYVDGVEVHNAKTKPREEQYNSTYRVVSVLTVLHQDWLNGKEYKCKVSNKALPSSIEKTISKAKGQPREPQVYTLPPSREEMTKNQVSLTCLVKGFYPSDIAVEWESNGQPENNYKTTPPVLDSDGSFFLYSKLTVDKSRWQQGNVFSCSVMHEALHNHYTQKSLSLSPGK
light: IRMTQSPPSLSASVGDRVTITCQASQDIGNSLGWYQQKPGKAPKLVIFDASDLETGVPSRFSGSGSGTDFSLTISSLQPEDFATYYCQQGNSFPLTFGQGTRLEIKRTVAAPSVFIFPPSDEQLKSGTASVVCLLNNFYPREAKVQWKVDNALQSGNSQESVTEQDSKDSTYSLSSTLTLSKADYEKHKVYACEVTHQGLSSPVTKSFNRGEC
notes: Human IgG1 Fc-null, kappa; also called Antibody 1/2
- EC50 [18]: > 330 nM
- EC50 [4]: 1.4 nM
- MFI ratio [3]: 153
- EC50 [19]: > 5 nM
- EC50 [20]: > 134 nM
- EC50 [21]: > 134 nM
- EC50 [22]: > 134 nM
- EC50 [23]: > 134 nM
- EC50 [24]: 0.027 nM
- Kd [2]: 4.67 nM
- koff [2]: 0.00711 s⁻¹
- kon [2]: 1.52e+06 M⁻¹ s⁻¹
- % of binding relative to wild-type hCD137 [5]: 100%
- % of binding relative to wild-type hCD137 [25]: 100%
- % of binding relative to wild-type hCD137 [6]: 100%
- % of binding relative to wild-type hCD137 [7]: 20%
- % of binding relative to wild-type hCD137 [8]: 100%
- % of binding relative to wild-type hCD137 [9]: 15%
- % of binding relative to wild-type hCD137 [10]: 100%
- % of binding relative to wild-type hCD137 [11]: 100%
- % of binding relative to wild-type hCD137 [12]: 85%
- % of binding relative to wild-type hCD137 [13]: 100%
- % of binding relative to wild-type hCD137 [14]: 25%
- % of binding relative to wild-type hCD137 [15]: 100%
- % of binding relative to wild-type hCD137 [16]: 100%
- % of binding relative to wild-type hCD137 [26]: 100%
- % of binding relative to wild-type hCD137 [27]: 100%
- % of binding relative to wild-type hCD137 [28]: 100%
- % of binding relative to wild-type hCD137 [29]: 25%
- % of binding relative to wild-type hCD137 [30]: 100%

Results, then the binder that gave them:

- MFI ratio [3]: 37
B2: PF83 (antibody, V domains shown)
VH: EVQLVQSGAEVKKPGESLRISCKGSGYSFSTYWISWVRQMPGKGLEWMGKIYPGDSYTNYSPSFQGQVTISADKSISTAYLQWSSLKASDTAMYYCARGYGIFDYWGQGTLVTVSS
VL: SYELTQPPSVSVSPGQTASITCSGDNIGDQYAHWYQQKPGQSPVLVIYQDKNRPSGIPERFSGSNSGNTATLTISGTQAMDEADYYCATYTGFGSLAVFGGGTKLTVLG
notes: Comparator anti-CD137 antibody, previously described in U.S. Pat. No. 8,337,850

- EC50 [4]: 0.43 nM
- max activity, NF-kappaB luciferase reporter [1]: 115%
- % of binding relative to wild-type hCD137 [5]: 100%
- % of binding relative to wild-type hCD137 [6]: 85%
- % of binding relative to wild-type hCD137 [7]: 100%
- % of binding relative to wild-type hCD137 [8]: 100%
- % of binding relative to wild-type hCD137 [9]: 100%
- % of binding relative to wild-type hCD137 [10]: 100%
- % of binding relative to wild-type hCD137 [11]: 100%
- % of binding relative to wild-type hCD137 [12]: 100%
- % of binding relative to wild-type hCD137 [13]: 100%
- % of binding relative to wild-type hCD137 [14]: 100%
- % of binding relative to wild-type hCD137 [15]: 100%
- % of binding relative to wild-type hCD137 [16]: 100%
- binding result [17]: no binding
B3: BMS20H4.9 (antibody, human IgG4 S228P, kappa, V domains shown)
VH: QVQLQQWGAGLLKPSETLSLTCAVYGGSFSGYYWSWIRQSPEKGLEWIGEINHGGYVTYNPSLESRVTISVDTSKNQFSLKLSSVTAADTAVYYCARDYGPGNYDWYFDLWGRGTLVTVSS
VL: EIVLTQSPATLSLSPGERATLSCRASQSVSSYLAWYQQKPGQAPRLLIYDASNRATGIPARFSGSGSGTDFTLTISSLEPEDFAVYYCQQRSNWPPALTFGGGTKVEIKR
notes: Comparator anti-CD137 antibody, previously described in U.S. Pat. No. 7,288,638

- max activity, NF-kappaB luciferase reporter [1]: 72.3%
- Kd [2]: 5.36 nM
- koff [2]: 0.00713 s⁻¹
- kon [2]: 1.33e+06 M⁻¹ s⁻¹
B4: Antibody A2 (antibody, human IgG1, kappa)
heavy: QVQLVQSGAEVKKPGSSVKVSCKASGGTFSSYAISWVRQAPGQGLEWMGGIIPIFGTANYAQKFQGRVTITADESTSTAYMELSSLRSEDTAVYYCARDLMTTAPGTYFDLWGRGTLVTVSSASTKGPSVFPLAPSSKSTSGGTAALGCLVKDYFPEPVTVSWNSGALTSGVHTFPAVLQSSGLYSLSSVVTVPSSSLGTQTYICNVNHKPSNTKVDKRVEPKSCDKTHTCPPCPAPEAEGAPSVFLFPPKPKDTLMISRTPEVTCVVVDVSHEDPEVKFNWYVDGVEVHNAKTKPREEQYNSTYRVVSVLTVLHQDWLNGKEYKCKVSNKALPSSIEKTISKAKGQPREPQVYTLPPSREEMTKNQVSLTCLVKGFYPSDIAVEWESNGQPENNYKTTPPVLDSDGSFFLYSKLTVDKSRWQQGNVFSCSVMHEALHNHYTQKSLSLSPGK
light: B5 light
notes: Form lacking the N-terminal alanine of the light chain; IgG1 Fc-null, kappa
